Results published in patent US12194057B2, “NXTAR-derived oligonucleotides and uses thereof” (Washington University, priority 2020, dated 2025).

Experiments:
[1] = biological target: T1, purified EZH2 (Homo sapiens, UniProt Q15910); assay: EZH2 pull-down assay with purified 6xHis-tagged EZH2; assay type: binding; details: immobilized on streptavidin beads
T1 construct: made in house
Experimental: 1 mg of lysate prepared from HEK293 cells transfected with 6λHis-tagged-EZH2 plasmid was incubated with Ni-NTA agarose beads (Qiagene) overnight at 4° C. Beads were washed three times using wash buffer (20 mM Tris/HCl, 200 mM NaCl, 5 mM imidazole; pH 7.5) and purified EZH2 was eluted using elution buffer (20 mM Tris/HCl, 200 mM NaCl, 200 mM imidazole; pH 7.5).
LncRNA-Protein binding study was performed as described earlier (see e.g., Zhao, Wang, and Hu (2021) Methods Mol Bio). Briefly, 10 pmol Biotinylated NXTAR-N5 oligo or Biotinylated Globin oligos were diluted in 40 ul RNA structure buffer, heated at 90° C. for 2 min, immediately transferred onto ice for 2 min and then kept at RT for further 20 mins. 10 uM of purified EZH2 protein was added to these biotinylated oligos with 500 ul of NETN buffer and the tubes were placed at 4° C. for 2 hrs. Post washing with cold NETN buffer, streptavidin magnetic beads (60 ul) were added into prepared oligo-protein mix and incubated at 4° C. overnight. Beads were washed 3 times with NETN buffer, followed by western blot analysis. […]

[2] = tested on: AR promoter; assay: ChIP-qPCR (EZH2, H3K27me3) at AR promoter; assay type: cell-based, human
Experimental: Chromatin immunoprecipitation (ChIP), quantitative RT-PCR, and ChIP-qPCR were performed as described earlier (see e.g., Mahajan et al. (2017) Cancer Cell; Mahajan et al. (2012) J Biol Chem; and Mahajan et al. (2012) Nat Struct Mol Bio). Briefly, cells were either transfected, infected or treated with various inhibitors (R)-9b; CPTH2 (Sigma, Cat #C9873)], fixed in formaldehyde, lysed and ChIP was performed with antibodies recognizing AR (SCBT, sc-7305; RRID:AB_626671), GCN5 (SCBT, SC-365321; RRID:AB_10846182), H3K14ac (CST, 7627S; RRID:AB_10839410), H3K27me3 (CST, 9733S; RRID:AB 2616029), NCOR1 (Bethyl Laboratories, Cat #A301-145A; RRID:AB_873085), EZH2 (CST, 5246S; RRID:AB_10694683), or IgG (Abcam, ab2410; RRID:AB_303052), immobilized on Protein A magnetic beads (Biorad, Cat #161-4013). The complexes were washed with ChIP buffers, eluted with elution buffer (Active Motif, Cat #53008), and subjected to reverse crosslinking, followed by RNase and proteinase K treatments. A part of soluble chromatin was processed separately at the same time and designated as input DNA. Treated ChIP DNA and input DNAs were purified using PCR-DNA purification columns (Qiagen, Cat #28106). The amount of immunoprecipitated DNA was determined by real-time PCR.

T1 sequence (Q15910 whole entry): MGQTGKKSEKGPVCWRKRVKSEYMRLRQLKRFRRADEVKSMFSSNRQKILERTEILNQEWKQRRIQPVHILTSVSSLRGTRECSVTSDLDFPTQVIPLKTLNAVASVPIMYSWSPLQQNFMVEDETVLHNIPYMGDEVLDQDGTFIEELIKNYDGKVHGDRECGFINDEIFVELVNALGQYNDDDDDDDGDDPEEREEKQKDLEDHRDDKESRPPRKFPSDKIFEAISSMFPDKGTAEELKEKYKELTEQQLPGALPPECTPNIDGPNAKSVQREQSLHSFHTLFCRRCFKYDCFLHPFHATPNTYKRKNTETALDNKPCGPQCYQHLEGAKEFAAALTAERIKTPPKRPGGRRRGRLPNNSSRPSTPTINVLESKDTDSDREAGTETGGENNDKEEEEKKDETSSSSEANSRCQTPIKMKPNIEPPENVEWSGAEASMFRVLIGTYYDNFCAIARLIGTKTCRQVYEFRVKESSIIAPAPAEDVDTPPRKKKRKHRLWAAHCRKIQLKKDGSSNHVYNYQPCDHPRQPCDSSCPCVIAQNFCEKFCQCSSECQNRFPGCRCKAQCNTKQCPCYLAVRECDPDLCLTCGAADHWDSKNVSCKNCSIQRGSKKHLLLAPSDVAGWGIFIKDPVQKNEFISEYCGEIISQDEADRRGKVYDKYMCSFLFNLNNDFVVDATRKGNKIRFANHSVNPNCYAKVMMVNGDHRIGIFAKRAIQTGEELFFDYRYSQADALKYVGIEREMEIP

B1: NXTAR: long non-coding RNA, 1476-nt transcript (SEQ ID NO: 58), expressed from retroviral or plasmid constructs (nucleic acid, listed as Homo sapiens)
chain: GGAAAAGGAAGGCTGCACAGAAGAACTGGCATTTGTGTTCTGCCTACAAAGCTGAAAAGGATTTCACCCAAATCAGGGAAGATCAGCCTTATGAGGTGGATATTATTGCCACAATAATTTTCCAGATGAAAAATGGAGGCCCAGAGATGTTAAGGAATTTGCCCAAGATCATGAAAAGACACTCTCCCCTATTGAGATGTCATGCAAGGATCAGTGCTGTGTGAAAATCCACATGAAGCAGGAAATGCAGGTGGTGGTGTCCAATCTGATTTCAAGATCTGAGAAGCTGTGCACTGCCTGAAAGGTATCTATTTAAGGTGTCACCAGACTCCTGCTCCACTCCTGCCCAAGGCCCAGCCCATCCAAGAGCAAAAGGCAAGTGGTGTTACAACCTTGGGATTTCCTGTATCTGCCCTCTTGCGGATAGCAGGACAGAGTCACAGCTGCATTAAATTCGCTTAAGACTTATTGAGACACTTCAACACTTCAACAACGACCTGTGAGATTAAGATTATTATTTTAAATTTACAGAAGGGGAAACTAAGAATTATAGACATGAAGTGACTCACCTATGACCACCTGGTGATAGAACCAGGACTAGAGCTCAGGTATGAAGATTTCTGGGGGAGTCCCTGAAAAAAAGGCTCCATATGGAATTACAATGTGGAAAAGGCCAAGGCCTCACCAACCCTTTTCTCTTCAACACCTGGATCCCTAAGTCCTTATTCGTAACCTCCTCTTTGGACAAGGTTTTGGTAGACAAAGCCAGAGCCTCTTGCACTGAGAAAGACAAATTCTCCTCTTGCAGTGAACCACAGGTAAATGCTCCAATAGAGAGTCCAAGCCAAACCTCCGGGTGTTATTCATGACCCAGGCAAGTCTGCTTTCTCATTCCCCCTATCTCTAGACCGTTTTCCATTTGGGCTTCCTTTTCTTCTTTTATCCTCAAAGAAACATGTTTCCTTCTAGTAGGTTTGGCTGCCACCACTAGGGTCCTGGCTACAACTGGCCCTCAGGTAACTCTCTCACCTCTGAGTTGGATAGTATCCTCTCTCGTCCCCATACACAAGTGTTTCTCTTCCCAGACACCTTCCTTACACAATTTCCCATTTCTTTCTCATCTCACCCTTGCTTTAATCAACATAGTTCTTTCCCCTGAGATTACTCTTCAGCCTTTCTTGTTGAAGCACTGCCCAGTGGTTCTCTTGGGATTTCCATTTCTCTCCCCTCAGCTCTCTTGGTACCAAATTCTGTAAGCTTCTCTGGTTTTTGGTTTCTCTTCCTTCTTTTCCTTCCAGGCAACATTTACTCAATCTAGGCTTGGATGATCAGGTACTTCTGCCAGCCTGCCCACTAGGGAACTCTGGGCTAGGAATATGTCTCAATGGCACCATTATATTTGGAAGGACGCTTCTGTATTTACACTGAACACACTAAAATACTAAACTTGAAGCCAAAATCCCCTCTCTGGCTCCA
binding to purified EZH2 [1]: considerable binding | EZH2 binding at the AR promoter ([2]; LNCaP cells overexpressing NXTAR): significant binding | deposition of H3K27me3 marks in the AR promoter ([2]; LNCaP, 22Rv1 and VCaP cells, NXTAR restoration): significant increase in deposition of H3K27me3 marks
